Blank lines part the entries; values can stand above or below the binder they belong to.
Target: T1, FLAG-tagged ZCCHC2 ΔN (201-1,178 a.a) (human, UniProt Q9C0B9 201-1178)
T1 construct: Transiently expressed in HeLa ZCCHC2 knockout cells; also called pCK-Flag-ZCCHC2 (201-1178); not shown: FLAG tag and any linker to it; The plasmid name pCK-Flag-ZCCHC2 puts the tag at the N-terminus
Test: anti-FLAG co-immunoprecipitation from HeLa ZCCHC2 KO cells, western blot
Protocol: Data are normalized against the value of the wild-type sample and represented as mean±SEM (n=3). * indicates p<0.05, with a two-sided Student's t-test performed. […] Full-length ZCCHC2 protein and its truncated mutants (ΔC, ΔN) were compared for their ability to interact with TENT4 proteins. TENT4A and GAPDH were detected on the same gel, whereas the other proteins were analyzed on separate gels with the same amounts of samples. Cross-reacting bands are indicated by asterisks.
For co-IP experiment, parental cells and TENT4 dKO cells on a 150 μl plate were lysed on ice for 20 minutes using Buffer A (100 mM KCl, 0.1 mM EDTA, 20 mM HEPES [pH 7.5], 0.4% NP-40, 10% glycerol) containing 1 mM DL-Dithiothreitol (DTT), 1× protease inhibitor, and RNase A (Thermo, EN0531), and then centrifuged. For immunoprecipitation, 12.5 μg of antibody (NMG, anti-TENT4A, and anti-TENT4B) conjugated to protein A and G sepharose beads (1:1 mixture, total 20 μl) was used with 1 mg of the lysates. After incubation at 4° C. for 2 hours, the beads were washed, boiled in 20 μl of 2×SDS buffer, and loaded onto a 4-12% (Novex) SDS-PAGE gel with the ladder (Thermo, 26616 and 26619). For domain co-IP experiment, full-length ZCCHC2, truncated construct of ZCCHC2, and negative construct having FLAG tag were transfected in ZCCHC2KO cells, and the cells were lysed within 2 days. […]

T1 sequence (Q9C0B9 201-1178 limits assumed, stated change not applied): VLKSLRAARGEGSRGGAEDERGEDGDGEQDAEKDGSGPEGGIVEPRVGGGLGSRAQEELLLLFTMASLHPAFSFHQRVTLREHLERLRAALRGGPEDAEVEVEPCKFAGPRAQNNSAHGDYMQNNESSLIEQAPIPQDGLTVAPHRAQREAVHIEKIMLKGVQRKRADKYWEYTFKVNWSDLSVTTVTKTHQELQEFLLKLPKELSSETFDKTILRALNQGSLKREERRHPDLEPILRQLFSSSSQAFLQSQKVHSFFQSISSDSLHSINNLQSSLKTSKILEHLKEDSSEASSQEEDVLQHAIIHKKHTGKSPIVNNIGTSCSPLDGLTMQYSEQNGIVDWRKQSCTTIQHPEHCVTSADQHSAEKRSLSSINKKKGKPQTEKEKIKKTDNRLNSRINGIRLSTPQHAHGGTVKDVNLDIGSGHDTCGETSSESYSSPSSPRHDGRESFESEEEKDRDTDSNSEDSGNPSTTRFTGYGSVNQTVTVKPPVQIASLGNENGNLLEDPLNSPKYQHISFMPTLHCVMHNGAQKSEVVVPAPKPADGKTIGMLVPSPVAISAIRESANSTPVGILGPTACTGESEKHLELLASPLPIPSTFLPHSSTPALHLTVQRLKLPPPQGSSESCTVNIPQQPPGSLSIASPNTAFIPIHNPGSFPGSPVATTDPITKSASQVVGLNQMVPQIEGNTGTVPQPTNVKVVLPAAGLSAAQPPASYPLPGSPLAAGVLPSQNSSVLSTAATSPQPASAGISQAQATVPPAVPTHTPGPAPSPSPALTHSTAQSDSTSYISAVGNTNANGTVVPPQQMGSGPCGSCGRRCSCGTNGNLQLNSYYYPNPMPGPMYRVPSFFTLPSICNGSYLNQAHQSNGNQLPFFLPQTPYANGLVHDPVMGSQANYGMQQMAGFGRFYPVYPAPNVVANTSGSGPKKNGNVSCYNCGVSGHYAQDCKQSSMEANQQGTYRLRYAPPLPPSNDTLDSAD

- binding result: no binding
B1: TENT4A (enzyme, human, UniProt Q5XG87 1-792, looked up)
chain: MDPRVAWIQPEQKGPANALWMQIWETSQGVGRGGSGFASYFCLNSPALDTAAAAGAAGRGSGGLGPALPAASPPPPGPTAPAALPPALLTALGPAAEGARRLHKSPSLSSSSSSSSSNAESGTESPGCSSSSSSSASLGRPGGGRGGAFFNFADGAPSAPGTANGHPGPRGPAPAGSPSQHQFHPGRRKRENKASTYGLNYLLSGSRAAALSGGGGPGAQAPRPGTPWKSRAYSPGIQGLHEEIIDFYNFMSPCPEEAAMRREVVKRIETVVKDLWPTADVQIFGSFSTGLYLPTSDIDLVVFGKWERPPLQLLEQALRKHNVAEPCSIKVLDKATVPIIKLTDQETEVKVDISFNMETGVRAAEFIKNYMKKYSLLPYLILVLKQFLLQRDLNEVFTGGISSYSLILMAISFLQLHPRIDARRADENLGMLLVEFFELYGRNFNYLKTGIRIKEGGAYIAKEEIMKAMTSGYRPSMLCIEDPLLPGNDVGRSSYGAMQVKQVFDYAYIVLSHAVSPLARSYPNRDAESTLGRIIKVTQEVIDYRRWIKEKWGSKAHPSPGMDSRIKIKERIATCNGEQTQNREPESPYGQRLTLSLSSPQLLSSGSSASSVSSLSGSDVDSDTPPCTTPSVYQFSLQAPAPLMAGLPTALPMPSGKPQPTTSRTLIMTTNNQTRFTIPPPTLGVAPVPCRQAGVEGTASLKAVHHMSSPAIPSASPNPLSSPHLYHKQHNGMKLSMKGSHGHTQGGGYSSVGSGGVRPPVGNRGHHQYNRTGWRRKKHTHTRDSLPVSLSR
notes: Endogenous protein of HeLa (human) cells; also called PAPD7; TRF4-1

- binding result: no binding
B2: TENT4B (enzyme, human, UniProt Q8NDF8 1-572, looked up)
chain: MYRSGERLLGSHALPAEQRDFLPLETTNNNNNHHQPGAWARRAGSSASSPPSASSSPHPSAAVPAADPADSASGSSNKRKRDNKASGGRAAGGGRADGGGVVYSGTPWKRRNYNQGVVGLHEEISDFYEYMSPRPEEEKMRMEVVNRIESVIKELWPSADVQIFGSFKTGLYLPTSDIDLVVFGKWENLPLWTLEEALRKHKVADEDSVKVLDKATVPIIKLTDSFTEVKVDISFNVQNGVRAADLIKDFTKKYPVLPYLVLVLKQFLLQRDLNEVFTGGIGSYSLFLMAVSFLQLHPREDACIPNTNYGVLLIEFFELYGRHFNYLKTGIRIKDGGSYVAKDEVQKNMLDGYRPSMLYIEDPLQPGNDVGRSSYGAMQVKQAFDYAYVVLSHAVSPIAKYYPNNETESILGRIIRVTDEVATYRDWISKQWGLKNRPEPSCNGPVSSSSATQSSSSDVDSDATPCKTPKQLLCRPSTGNRVGSQDVSLESSQAVGKMQSTQTTNTSNSTNKSQHGSARLFRSSSKGFQGTTQTSHGSLMTNKQHQGKSNNQYYHGKKRKHKRDAPLSDLCR
notes: Endogenous protein of HeLa (human) cells; also called PAPD5; TRF4-2
